T1: FcγRIIa R (extracellular domain with a His tag at the C terminus) (human, UniProt P12318 34-217)
T1 construct: extracellular domain; expressed in FreeStyle293 cells; also called FcgRIIa R; FcγRIIa type R; not shown: His tag at the C terminus
T1 sequence (looked up): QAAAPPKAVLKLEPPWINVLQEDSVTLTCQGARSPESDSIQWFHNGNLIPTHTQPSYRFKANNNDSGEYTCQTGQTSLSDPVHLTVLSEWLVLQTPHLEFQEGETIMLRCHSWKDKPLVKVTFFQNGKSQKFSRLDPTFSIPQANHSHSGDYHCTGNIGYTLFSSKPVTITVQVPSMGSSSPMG


Target: T1, FcγRIIa R (extracellular domain with a …)
Assay: SPR Biacore, relative binding

Row | He/Con_2aR | Binder
1 | 106 % of GpH7-A5/GpH7-B3/GpL16-k0 (=100) | GpH7-A5/GpH7-B3 variant P331_02A/GpL16-k0 (antibody, human IgG1, kappa, heterodimerized; mutation in one H chain; also called He Ab) heavy 1: not shown heavy 2: not shown light: DIVMTQSPLSLPVTPGEPASISCQASESLVHSNRNTYLHWYLQKPGQSPQLLIYKVSNRFSGVPDRFSGSGSGTDFTLKISRVEAEDVGVYYCSQNTHVPPTFGQGTKVEIERTVAAPSVFIFPPSDEQLKSGTASVVCLLNNFYPREAKVQWKVDNALQSGNSQESVTEQDSKDSTYSLSSTLTLSKADYEKHKVYACEVTHQGLSSPVTKSFNRGEC
2 | 110 % of GpH7-A5/GpH7-B3/GpL16-k0 (=100) | GpH7-A5/GpH7-B3 variant P331_20W/GpL16-k0 (antibody, human IgG1, kappa, heterodimerized; mutation in one H chain; also called He Ab) heavy 1: not shown heavy 2: not shown light: DIVMTQSPLSLPVTPGEPASISCQASESLVHSNRNTYLHWYLQKPGQSPQLLIYKVSNRFSGVPDRFSGSGSGTDFTLKISRVEAEDVGVYYCSQNTHVPPTFGQGTKVEIERTVAAPSVFIFPPSDEQLKSGTASVVCLLNNFYPREAKVQWKVDNALQSGNSQESVTEQDSKDSTYSLSSTLTLSKADYEKHKVYACEVTHQGLSSPVTKSFNRGEC
3 | 122 % of GpH7-A5/GpH7-B3/GpL16-k0 (=100) | GpH7-A5/GpH7-B3 variant S267_06M/GpL16-k0 (antibody, human IgG1, kappa, heterodimerized; mutation in one H chain; also called He Ab) heavy 1: not shown heavy 2: not shown light: DIVMTQSPLSLPVTPGEPASISCQASESLVHSNRNTYLHWYLQKPGQSPQLLIYKVSNRFSGVPDRFSGSGSGTDFTLKISRVEAEDVGVYYCSQNTHVPPTFGQGTKVEIERTVAAPSVFIFPPSDEQLKSGTASVVCLLNNFYPREAKVQWKVDNALQSGNSQESVTEQDSKDSTYSLSSTLTLSKADYEKHKVYACEVTHQGLSSPVTKSFNRGEC
4 | 105 % of GpH7-A5/GpH7-B3/GpL16-k0 (=100) | GpH7-A5/GpH7-B3 variant S337_06M/GpL16-k0 (antibody, human IgG1, kappa, heterodimerized; mutation in one H chain; also called He Ab) heavy 1: not shown heavy 2: not shown light: DIVMTQSPLSLPVTPGEPASISCQASESLVHSNRNTYLHWYLQKPGQSPQLLIYKVSNRFSGVPDRFSGSGSGTDFTLKISRVEAEDVGVYYCSQNTHVPPTFGQGTKVEIERTVAAPSVFIFPPSDEQLKSGTASVVCLLNNFYPREAKVQWKVDNALQSGNSQESVTEQDSKDSTYSLSSTLTLSKADYEKHKVYACEVTHQGLSSPVTKSFNRGEC
5 | 114 % of GpH7-A5/GpH7-B3/GpL16-k0 (=100) | GpH7-A5/GpH7-B3 variant P331_16H/GpL16-k0 (antibody, human IgG1, kappa, heterodimerized; mutation in one H chain; also called He Ab) heavy 1: not shown heavy 2: not shown light: DIVMTQSPLSLPVTPGEPASISCQASESLVHSNRNTYLHWYLQKPGQSPQLLIYKVSNRFSGVPDRFSGSGSGTDFTLKISRVEAEDVGVYYCSQNTHVPPTFGQGTKVEIERTVAAPSVFIFPPSDEQLKSGTASVVCLLNNFYPREAKVQWKVDNALQSGNSQESVTEQDSKDSTYSLSSTLTLSKADYEKHKVYACEVTHQGLSSPVTKSFNRGEC
6 | 106 % of GpH7-A5/GpH7-B3/GpL16-k0 (=100) | GpH7-A5/GpH7-B3 variant S337_03V/GpL16-k0 (antibody, human IgG1, kappa, heterodimerized; mutation in one H chain; also called He Ab) heavy 1: not shown heavy 2: not shown light: DIVMTQSPLSLPVTPGEPASISCQASESLVHSNRNTYLHWYLQKPGQSPQLLIYKVSNRFSGVPDRFSGSGSGTDFTLKISRVEAEDVGVYYCSQNTHVPPTFGQGTKVEIERTVAAPSVFIFPPSDEQLKSGTASVVCLLNNFYPREAKVQWKVDNALQSGNSQESVTEQDSKDSTYSLSSTLTLSKADYEKHKVYACEVTHQGLSSPVTKSFNRGEC
7 | 105 % of GpH7-A5/GpH7-B3/GpL16-k0 (=100) | GpH7-A5/GpH7-B3 variant S298_08L/GpL16-k0 (antibody, human IgG1, kappa, heterodimerized; mutation in one H chain; also called He Ab) heavy 1: not shown heavy 2: not shown light: DIVMTQSPLSLPVTPGEPASISCQASESLVHSNRNTYLHWYLQKPGQSPQLLIYKVSNRFSGVPDRFSGSGSGTDFTLKISRVEAEDVGVYYCSQNTHVPPTFGQGTKVEIERTVAAPSVFIFPPSDEQLKSGTASVVCLLNNFYPREAKVQWKVDNALQSGNSQESVTEQDSKDSTYSLSSTLTLSKADYEKHKVYACEVTHQGLSSPVTKSFNRGEC
8 | 111 % of GpH7-A5/GpH7-B3/GpL16-k0 (=100) | GpH7-A5/GpH7-B3 variant S239_18N/GpL16-k0 (antibody, human IgG1, kappa, heterodimerized; mutation in one H chain; also called He Ab) heavy 1: not shown heavy 2: not shown light: DIVMTQSPLSLPVTPGEPASISCQASESLVHSNRNTYLHWYLQKPGQSPQLLIYKVSNRFSGVPDRFSGSGSGTDFTLKISRVEAEDVGVYYCSQNTHVPPTFGQGTKVEIERTVAAPSVFIFPPSDEQLKSGTASVVCLLNNFYPREAKVQWKVDNALQSGNSQESVTEQDSKDSTYSLSSTLTLSKADYEKHKVYACEVTHQGLSSPVTKSFNRGEC
9 | 135 % of GpH7-A5/GpH7-B3/GpL16-k0 (=100) | GpH7-A5/GpH7-B3 variant S239_10E/GpL16-k0 (antibody, human IgG1, kappa, heterodimerized; mutation in one H chain; also called He Ab) heavy 1: not shown heavy 2: not shown light: DIVMTQSPLSLPVTPGEPASISCQASESLVHSNRNTYLHWYLQKPGQSPQLLIYKVSNRFSGVPDRFSGSGSGTDFTLKISRVEAEDVGVYYCSQNTHVPPTFGQGTKVEIERTVAAPSVFIFPPSDEQLKSGTASVVCLLNNFYPREAKVQWKVDNALQSGNSQESVTEQDSKDSTYSLSSTLTLSKADYEKHKVYACEVTHQGLSSPVTKSFNRGEC
10 | 123 % of GpH7-A5/GpH7-B3/GpL16-k0 (=100) | GpH7-A5/GpH7-B3 variant S324_06M/GpL16-k0 (antibody, human IgG1, kappa, heterodimerized; mutation in one H chain; also called He Ab) heavy 1: not shown heavy 2: not shown light: DIVMTQSPLSLPVTPGEPASISCQASESLVHSNRNTYLHWYLQKPGQSPQLLIYKVSNRFSGVPDRFSGSGSGTDFTLKISRVEAEDVGVYYCSQNTHVPPTFGQGTKVEIERTVAAPSVFIFPPSDEQLKSGTASVVCLLNNFYPREAKVQWKVDNALQSGNSQESVTEQDSKDSTYSLSSTLTLSKADYEKHKVYACEVTHQGLSSPVTKSFNRGEC
11 | 173 % of GpH7-A5/GpH7-B3/GpL16-k0 (=100) | GpH7-A5/GpH7-B3 variant S267_09D/GpL16-k0 (antibody, human IgG1, kappa, heterodimerized; mutation in one H chain; also called He Ab) heavy 1: not shown heavy 2: not shown light: DIVMTQSPLSLPVTPGEPASISCQASESLVHSNRNTYLHWYLQKPGQSPQLLIYKVSNRFSGVPDRFSGSGSGTDFTLKISRVEAEDVGVYYCSQNTHVPPTFGQGTKVEIERTVAAPSVFIFPPSDEQLKSGTASVVCLLNNFYPREAKVQWKVDNALQSGNSQESVTEQDSKDSTYSLSSTLTLSKADYEKHKVYACEVTHQGLSSPVTKSFNRGEC
12 | 122 % of GpH7-A5/GpH7-B3/GpL16-k0 (=100) | GpH7-A5/GpH7-B3 variant S239_08L/GpL16-k0 (antibody, human IgG1, kappa, heterodimerized; mutation in one H chain; also called He Ab) heavy 1: not shown heavy 2: not shown light: DIVMTQSPLSLPVTPGEPASISCQASESLVHSNRNTYLHWYLQKPGQSPQLLIYKVSNRFSGVPDRFSGSGSGTDFTLKISRVEAEDVGVYYCSQNTHVPPTFGQGTKVEIERTVAAPSVFIFPPSDEQLKSGTASVVCLLNNFYPREAKVQWKVDNALQSGNSQESVTEQDSKDSTYSLSSTLTLSKADYEKHKVYACEVTHQGLSSPVTKSFNRGEC
13 | 135 % of GpH7-A5/GpH7-B3/GpL16-k0 (=100) | GpH7-A5/GpH7-B3 variant S267_19Q/GpL16-k0 (antibody, human IgG1, kappa, heterodimerized; mutation in one H chain; also called He Ab) heavy 1: not shown heavy 2: not shown light: DIVMTQSPLSLPVTPGEPASISCQASESLVHSNRNTYLHWYLQKPGQSPQLLIYKVSNRFSGVPDRFSGSGSGTDFTLKISRVEAEDVGVYYCSQNTHVPPTFGQGTKVEIERTVAAPSVFIFPPSDEQLKSGTASVVCLLNNFYPREAKVQWKVDNALQSGNSQESVTEQDSKDSTYSLSSTLTLSKADYEKHKVYACEVTHQGLSSPVTKSFNRGEC
14 | 116 % of GpH7-A5/GpH7-B3/GpL16-k0 (=100) | GpH7-A5/GpH7-B3 variant S267_03V/GpL16-k0 (antibody, human IgG1, kappa, heterodimerized; mutation in one H chain; also called He Ab) heavy 1: not shown heavy 2: not shown light: DIVMTQSPLSLPVTPGEPASISCQASESLVHSNRNTYLHWYLQKPGQSPQLLIYKVSNRFSGVPDRFSGSGSGTDFTLKISRVEAEDVGVYYCSQNTHVPPTFGQGTKVEIERTVAAPSVFIFPPSDEQLKSGTASVVCLLNNFYPREAKVQWKVDNALQSGNSQESVTEQDSKDSTYSLSSTLTLSKADYEKHKVYACEVTHQGLSSPVTKSFNRGEC
15 | 112 % of GpH7-A5/GpH7-B3/GpL16-k0 (=100) | GpH7-A5/GpH7-B3 variant P331_15Y/GpL16-k0 (antibody, human IgG1, kappa, heterodimerized; mutation in one H chain; also called He Ab) heavy 1: not shown heavy 2: not shown light: DIVMTQSPLSLPVTPGEPASISCQASESLVHSNRNTYLHWYLQKPGQSPQLLIYKVSNRFSGVPDRFSGSGSGTDFTLKISRVEAEDVGVYYCSQNTHVPPTFGQGTKVEIERTVAAPSVFIFPPSDEQLKSGTASVVCLLNNFYPREAKVQWKVDNALQSGNSQESVTEQDSKDSTYSLSSTLTLSKADYEKHKVYACEVTHQGLSSPVTKSFNRGEC
16 | 111 % of GpH7-A5/GpH7-B3/GpL16-k0 (=100) | GpH7-A5/GpH7-B3 variant P331_04F/GpL16-k0 (antibody, human IgG1, kappa, heterodimerized; mutation in one H chain; also called He Ab) heavy 1: not shown heavy 2: not shown light: DIVMTQSPLSLPVTPGEPASISCQASESLVHSNRNTYLHWYLQKPGQSPQLLIYKVSNRFSGVPDRFSGSGSGTDFTLKISRVEAEDVGVYYCSQNTHVPPTFGQGTKVEIERTVAAPSVFIFPPSDEQLKSGTASVVCLLNNFYPREAKVQWKVDNALQSGNSQESVTEQDSKDSTYSLSSTLTLSKADYEKHKVYACEVTHQGLSSPVTKSFNRGEC
